Here are results for 3 molecules from article PMC4339652, “Antibacterial toxin colicin N and phage protein G3p compete with TolB for a binding site on TolA” (Microbiology, 2015).

B1: TolAIII (TolA domain III, residues 296-421), wild type (domain or fragment, E. coli, UniProt P19934 296-421, looked up)
chain: DIFGELSSGKNAPKTGGGAKGNNASPAGSGNTKNNGASGADINNYAGQIKSAIESKFYDASSYAGKTCTLRIKLAPDGMLLDIKPEGGDPALCQAALAAAKLAKIPKPPSQAVYEVFKNAPLDFKP
notes: TolA, E. coli, 421-residue protein; C-terminal domain III, residues 296-421, soluble truncate lacking TolAI-II; also called TolA_(III296–421); WT TolAIII

Values joined by “and” are separate entries in the source; they are usually repeats but may differ in a detail not shown here. Equal values may be shown once.

What all share (details): both partners purified
The target in one assay is T1, TolB DGSY-AGAA (UniProt P0A855 22-430, DGSY-AGAA).
T1 construct: TolB with DGSY (109-112) changed to AGAA
The experiment in a line: SPR; TolAIII (645 RU) amine-coupled to CM5; WT TolB or TolB mutants passed over (5 µM in Fig. 4e); 1:1 Langmuir fits and steady-state affinity; HEPES-EP, 25 °C.

The target in the next assay is T2, TolB, wild type (UniProt P0A855 22-430).
T2 construct: TolB, 47 kDa two-domain soluble periplasmic protein; also called WT TolB
Described as above.

For assay [1], the target named is B1. The assay is described as follows: SPR; TolAIII WT, D418P or K420P amine-coupled to a CM5 chip (~550 RU; 155 RU TolAIII for ColN-T kinetics); concentration series of analyte (ColN-T, G3p-N1 0.2-50 µM; G3p-N1 V44P up to 250 µM); Biacore X-100, 25 °C, HEPES-EP (10 mM HEPES pH 7.4, 150 mM NaCl, 3.4 mM EDTA, 0.05 % P20); blank surface subtracted; kinetic fits and steady-state affinity. Background: Surface plasmon resonance follows binding to a sensor surface in real time, without labels.

As usually defined, the Kd is the constant that tells how readily two partners part at equilibrium. Lower therefore signals a tighter complex. The term koff denotes the rate constant with which the complex falls apart. What is called kon is a measure of how fast the partners come together. A lower kon goes with slower complex formation.

With B1, in the assay with TolB DGSY-AGAA, the dissociation constant (Kd) was 39 µM and 48.3 µM; the koff was 0.1 ± 0.002 s⁻¹; the kon stood at 2710 M⁻¹ s⁻¹. Moreover, in the assay with TolB, wild type, the Kd is 37 µM and 43.2 µM; the koff is 0.3 ± 0.004 s⁻¹; the kon came out at 8270 M⁻¹ s⁻¹.

B2: G3p-N1, N-terminal (N1) domain of gene-3-protein of filamentous bacteriophage M13 (domain or fragment, UniProt P69168 19-104, looked up)
chain: AETVESCLAKPHTENSFTNVWKDDKTLDRYANYEGCLWNATGVVVCTGDETQCYGTWVPIGLAIPENEGGGSEGGGSEGGGSEGGG
notes: Gene-3-protein (G3p, minor coat protein), filamentous bacteriophage M13, N1 domain; also called G3p-sN1
B2: in assay [1], the Kd was 15 µM and 11.9 µM; the koff stood at 0.31 ± 0.002 s⁻¹; the kon amounted to 20600 M⁻¹ s⁻¹.

B3: Colicin N translocation domain, ColN-T (ColN 1-90) (domain or fragment)
chain: MGSNGADNAHNNAFGGGKNPGIGNTSGAGSNGSASSNRGNSNGWSWSNKPHKNDGFHSDGSYHITFHGDNNSKPKPGGNSGNRGNNGDGA
notes: Colicin N, disordered N-terminal translocation (T) domain, residues 1-90; also called ColN-T_(1–90); T_(1–90)
In the case of B3, the dissociation constant (Kd) in assay [1] stood at 1.8 ± 0.2 µM.
